Experimental data reported in paper PMC6588657 (2018).

B1: full-length, C-terminal, Flag-tagged human Lnp [human] / Myc-ATL3 [human] (parent complex)
chain 1: MGGLFSRWRTKPSTVEVLESIDKEIQALEEFREKNQRLQKLWVGRLILYSSVLYLFTCLIVYLWYLPDEFTARLAMTLPFFAFPLIIWSIRTVIIFFFSKRTERNNEALDDLKSQRKKILEEVMEKETYKTAKLILERFDPDSKKAKECEPPSAGAAVTARPGQEIRQRTAAQRNLSPTPASPNQGPPPQVPVSPGPPKDSSAPGGPPERTVTPALSSNVLPRHLGSPATSVPGMGLHPPGPPLARPILPRERGALDRIVEYLVGDGPQNRYALICQQCFSHNGMALKEEFEYIAFRCAYCFFLNPARKTRPQAPRLPEFSFEKRQVVEGSSSVGPLPSGSVLSSDNQFNEESLEHDVLDDNTEQTDDKIPATEQTNQVIEKASDSEEPEEKQETENEEASVIETNSTVPGADSIPDPELSGESLTAE
chain 2: MLSPQRVAAAASRGADDAMESSKPGPVQVVLVQKDQHSFELDEKALASILLQDHIRDLDVVVVSVAGAFRKGKSFILDFMLRYLYSQKESGHSNWLGDPEEPLTGFSWRGGSDPETTGIQIWSEVFTVEKPGGKKVAVVLMDTQGAFDSQSTVKDCATIFALSTMTSSVQIYNLSQNIQEDDLQQLQLFTEYGRLAMDEIFQKPFQTLMFLVRDWSFPYEYSYGLQGGMAFLDKRLQVKEHQHEEIQNVRNHIHSCFSDVTCFLLPHPGLQVATSPDFDGKLKDIAGEFKEQLQALIPYVLNPSKLMEKEINGSKVTCRGLLEYFKAYIKIYQGEDLPHPKSMLQATAEANNLAAAASAKDIYYNNMEEVCGGEKPYLSPDILEEKHCEFKQLALDHFKKTKKMGGKDFSFRYQQELEEEIKELYENFCKHNGSKNVFSTFRTPAVLFTGIVALYIASGLTGFIGLEVVAQLFNCMVGLLLIALLTWGYIRYSGQYRELGGAIDFGAAYVLEQASSHIGNSTQATVRDAVVGRPSMDKKAQ

Variants of: B1
Experiment: co-immunoprecipitation; COS-7 cell lysates containing 1% Triton X-100; anti-Flag antibody-conjugated agarose; band quantification by Image J; parent: 1

| ratio to parent | Variant |
| --- | --- |
| 0.34 | chain 1 L28D |
| 0.26 | chain 1 I25D, chain 1 L28D |
| 0.32 | chain 1 I25D |
